Assay results: the DeepSol protein solubility set

Assay: soluble on expression in E. coli; label from the status in PepcDB or PDB records

| Sequence | soluble on expression in E. coli |
| --- | --- |
| MGSDKIHHHHHHMNDFEEYIRQSEPHKREKGYAWQTAIGLQAVDGLKPSEYLKEKARQHIEGDITIDEVKQLVDSYYKSKVARSSSEDRTEEADKVSARITEILSENTFTFSPIEYLAIHRHLFEGIFSHAGQIRDYNITKNEWVLKGATVLYASAGSIRETLEYDFSQEKIFDYKNLNIDEAIRHIARFVSGIWQIHAFGEGNTRTTAVFTIKYLHTFGFNFSNETFANHSWYFRNALVRANYNDLTKGVYATTEFLEKFFRNLILNEQNELKNRNLQIDEIEKEAIQSAKQTDMDIPKCKNCTLDCTLEEIAVLNYLKEKPNATQKEIAQHIGKSERTVKSMTVNLSERGIIERKNGRRNGFWEIKK | not soluble |
| AQAEASSAQAAQQKNFNIAAQPLQSAMLRFAEQAGMQVFFDEVKLDGMQAAALNGSMSVEQGLRRLIGGNPVAFRLQPQGQIVLSRLPTANGDGGALALDSLTVLGAGGNNANDWVYDEPRSVSVISREQMDNRPARHAADILEQTTGAYSSVSQQDPALSVNIRGIQDYGRVNMNIDGMRQNFQKSGHGQRNGTMYIDSELLSGVTIDKGTTGGMGSAGTLGGIATFNTVSASDFLAPGKELGGKLHASTGDNGTHFIGSGILALGNETGDILLAASERHLGDYWPGNKGDIGNIRINNDTGNYDRYAESIKNNKIPDTHYRMHSRLAKVGWNLPANQRLQLSYLQTQTASPIAGTLTNLGTRPPYELGWKRTGYTDVMARNAAFDYSLAPEDVDWLDFQAKLYYVDTQDDSDTYSTSSLLDNGYATRTRLRTYGAQAQNTSRFSLAPGHDFRANYGLEFYYDKATSDSSRQGMEGVTPAGNRSVASLFANLTYDYDGWLTLEGGLRYDRYRLRGQTGLSYPDLAKDGQRYTIDNPCKALRLTGCSTTTREDWDVDRDQGKLSPTLAVAVRPGVEWLELYTTYGKSWRPPAITETLTNGSAHSSSTQYPNPFLQPERSRAWEVGFNVQQPDLWFEGDRLVAKVAYFDTKVDNYINLAIDRNKPGLVQPSIGNAAYVNNLSKTRFRGLEYQLNYDAGVFYADLTYTHMIGKNEFCSNKAWLGGRLRYGDGSRRGNFYVEPDAASNDFVTCDGGTQFGSAAYLPGDRGSVTLGGRAFDRKLDAGVTVRFAPGYQDSSVPSNYPYLADWPKYTLFDLYASYKLTDSLTLRGSVENLTNRAYVVSYGETLANTLGRGRTVQGGVEYRF | soluble |
| MYPSIKETMRVQLSMEGSVNYHAFKCTGKGEGKPYEGTQSLNITITEGGPLPFAFDILSHAFQYGIKVFAKYPKEIPDFFKQSLPGGFSWERVSTYEDGGVLSATQETSLQGDCIICKVKVLGTNFPANGPVMQKKTCGWEPSTETVIPRDGGLLLRDTPALMLADGGHLSCFMETTYKSKKEVKLPELHFHHLRMEKLNISDDWKTVEQHESVVASYSQVPSKLGHN | soluble |
| MGSDKIHHHHHHMTAIRVTITQVKGSAPRDTGTSMLVFADRIEGTIGGGALEWEAMRLARDMLRNGTSVTTHTFPLGPALGQCCGGVVKLELQAATQWKGVEKTPIWIWGAGHVGRAIIHTLSPFSALDLSWIDTAADRFPADIPNDTHRLIATDPPRLMPHAPPNAHHLIATYSHDIDLALCHAALTHGFASAGVIGSATKWARFRKRLGQMGHSGAQISRIMCPIGDPGLGKHPQAIAIGVAARLLGEQMLQESAQHLKDVDHGGT | not soluble |
| MPGSTGKTRTAEAGETARRDQDSNSYVYGVVPADVELDPEARGVGDPPGRISLVRHGEIAALVSDIVLDRPLGRPDDLLAHQRLLDATAAEVPVLPFRFGAVVSDSEAVVEELLGPNHDDFLAALKELEGRAEYVVKGRYVERVVIGEVLAEDPEATRLREEIRGRPEEATWDARIQLGQMIGEAVAAKRDADTAALVDALAPKCAGVVVREPTHEQDAVHVAVLVDTDRQAEFEKILDEFGERWAGRIDLRLLGPLAPYDFVMAPGQGG | soluble |
| MKMDYILSDFAQKQGYAVESYEIVDSTNYIAQQKAHAGHHGYLWVVAKEQSQGRARRGRTWSSPKGNLYSSLLLVEDIVHQTAAQLGFVAGVSVVETIKQFIKDEKQTSDIVSLKWPNDILLRGAKSSGILLEIFKLPSQQYALVIGIGINVKYHYEDAPYPTSSLKNIGLDIETEQLFTVLTEYFSKNYLLWKQLGGCDRIREKWLLYSAHSGQYVKIVNDEKIIEGIFDGLDNDFNCVIKQKNGQQAVITAGDVHFGSSASVNAGCY | not soluble |
| MKKHTLALCLAAILAPAAHAAEIKVEDLTWKAITFGQSTDMNFGSTILPEKVGVNQVTVNGEAVAAGKLASTFTIESRGGKLANSHEGLTFYYTELPTDVNFTLSADVVLEQLGPETGATPNRQEGAGLMVRDILGAERLVPQPEGHEEFPSASNMVMNLMRSHTRANDGMTNINASFREGVYQPWGTPGNRLSRVDYVEGVPYGTAETYRMTLTRTNDGFKVSYRNGEKFVEQAVKGANANIVEMQNSDSQYVGFFASRNAKMTVSNVDLQLAAADTVDAPKYAAKQGELVFQIASSPRSATKEYPVQARANYSGEFEVLHNDKVVAKQTVTAGELFSQWLTLDSGANQMEVRFTAIDGPNKETQAHRYSVDVVSLPDPMTL | not soluble |
| MSLKVATFIEPGKMVITDTPKPVIEQETDAVIKIVRACVCGSDLWWYRGISKRESGSFAGHEAIGIVEEVGTKVTDVSKGDFVIVPFTHGCGQCPSCKAGFDGNCTNHQAAKNVGYQGQYLRYTNANWALVKIPGQPSDYDNETLNSLLTLSDVMATGYHAAATAEVKEGDTVVVMGDGAVGLCGVIAAKMLGANRIIAMSRHKDRQELALTFGATDIVEERGDEAVKRVLDLTNQAGADAVLECVGTEQSVDTATQIARPGAVIGRVGIPQNPDMNTNNLFWKNIGLRGGIASVTTFDKSVLLDAVLTHKINPGLVFTKSFVLDDIQKAYEAMDKRDAIKSLVIVDEGHHHHHH | soluble |
| MRPLDENLRTSAASRPAQSLSVRGQPEAESGAFGEAIADAGRRRTQGQGGQTSADDARRDSVANGGNASAVPKADGFGADVPASTADAASPDARPAYERAIITRDQAAKRLQHSHPAGTRHLSQGREDGGEEIAQPAERAVVRSRETVQTSRDSVDEASGVTAREGGENGDPASGTVSDLLSMLTGAAPAVAAASQPEGRAKPASAVRDGSDGPAKAVGGISPAVPDGEHPQTGEGTGGSEPDRLFRFARADGKGQAVSMNISRDGERAVVENSRSSVKPGVETVTVLEARRYLGLAVNENATSVTTAIAGDSGWAEALQSSAATTKPEAWSQAGKTLNTLKIQMHPVDLGMVTATLRLKDDELQVDLKVETGEAFRQLRDDQSEMVKALRAQGFAVDQVNIVFNGGGDSASGGGGQSQAQAQLGYEGRERAGDDGQGRQPRDGGRAATERWAGNDATDDVPDGAERSRAGHVYM | not soluble |
| MGSDKIHHHHHHMRLFKSLKNPKKTDAKLPKKSSGLNNRAAIGIDIDQHSIKMVQLSGRSLNQIQLEKYVIAKLPKNIIQGNKVQNYDQLVTYLQQAYAKLGTSCKNIVASVPQNLATIEQLTYTAKDAELDLQGFVESSISEASSISLEEANYDYQVLSQSAVGEAVLSVASRKDEIEPLIDAFNAAGMKLSALDVDIFGQYNAYALWINHFAPELADEKVAIFGVYAAQTYALVIQDGKILYKQETSVSEEQLNQLIQRTYQVTAEKAEEIINSPQKPSDYQESVANYFNQQITQEIQRVLQFYYTTQTADDMTDIKHILLTGEAVRQKGIAQTVASQTNADVQCVHPARYFANDLKTDEQQFELDAPTLTKAFGLAVRGL | not soluble |
| GPGSMKSPHMARIGNSVYRDICPEDDPLCSNFGFEDYDLSRPTPMMRMSLLYNLHVSGESPSPAIDNMFRLAYRSRHGLVKIYKVMNVSAESKAWVADPKNRKCDAPGSWLCTGQYPPAKEIQEMLARRIDYGQLEDFNRGKRDDAYYRAYMRRIRNQGRG | soluble |
| GPLGSDDVEWVVGKDKPTYDEIFYTLSPVNGKITGANAKKEMVKSKLPNTVLGKIWKLADVDKDGLLDDEEFALANHLIKVKLEGHELPADLPPHLVPPSKRRHE | soluble |
| MGHHHHHHSHMAATKRKRRGGFAVQAKKPKRNEIDAEPPAKRHATAEEVEEEERDRIPGPVCKGKWKNKERILIFSSRGINFRTRHLMQDLRMLMPHSKADTKMDRKDKLFVINEVCEMKNCNKCIYFEAKKKQDLYMW | not soluble |
| MKFKYGATLFSGFLGLSAILAACGAKGKFDQVDDGKIVLASSLTSKNAANALQAVVEKYNQVKGGNDYPIEITQITGGYDGGRGNLQTKLSVKDKTTFYNLI | soluble |
| MSGEPELIELRELAPAGRAGKGRTRLERANALRIARGTACNPTRQLVPGRGHRFQPAGPATHTWCDLCGDFIWGVVRKGLQCARLSADCKFTCHYRCRALVCLDCCGPRDLGWEPAVERDTNVDEPVEWETPDLSQAEIEQKIKEYNAQINSNLFMSLNKDGSYTGFIKVQLKLVRPVSVPSSKKPPSLQDARRGPGRGTSVRRRTSFYLPKDAVKHLHVLSRTRAREVIEALLRKFLVVDDPRKFALFERAERHGQVYLRKLLDDEQPLRLRLLAGPSDKALSFVLKENDSGEVNWDAFSMPELHNFLRILQREEEEHLRQILQKYSYCRQKIQEALHACPLGLEHHHHHH | not soluble |
| KTRPYMEEVLYVWKLKQLHNKIFRKLKSIKAAASNDDVKALTTLKFYYTTQRQVFELDNNTLTMSSVNKELEAIDQIEVDKSLHLDIASFEEGWIDTY | soluble |
| MVSKNKKLNLKDKYQYLTRDMAWEPTYQDKKDIFPEEDFEGIKITDWSQWEDPFRLTMDAYWKYQAEKEKKLYAIFDAFAQNNGHQNISDARYVNALKLFISGISPLEHAAFQGYSKVGRQFSGAGARVACQMQAIDELRHSQTQQHAMSHYNKHFNGLHDGPHMHDRVWYLSVPKSFFDDARSAGPFEFLTAISFSFEYVLTNLLFVPFMSGAAYNGDMATVTFGFSAQSDEARHMTLGLEVIKFILEQHEDNVPIVQRWIDKWFWRGFRLLSLVSMMMDYMLPNKVMSWSEAWEVYYEQNGGALFKDLERYGIRPPKYQDVANDAKHHLSHQLWTTFYQYCQATNFHTWIPEKEEMDWMSEKYPDTFDKYYRPRYEYLAKEAAAGRRFYNNTLPQLCQVCQIPTIFTEKDAPTMLSHRQIEHEGERYHFCSDGCCDIFKHEPEKYIQAWLPVHQIYQGNCEGGDLETVVQKYYHINIGEDNFDYVGSPDQKHWLSIKGRKPADKNQDDA | soluble |
| MPKISSRDGGRPAQRTVNPIIVTRRGKIARLESGLTPQEAQIEDLVFLRKVLNRADIPYLLIRNHKNRPVLAINIELRAGLERALAAACATEPMYAKTIDEPGLSPVLVATDGLSQLVDPRVVRLYRRRIAPGGFRYGPAFGVELQFWVYEETVIRCPVENSLSRKVLPRNEITPTNVKLYGYKWPTLDGMFAPHASDVVFDIDMVFSWVDGSDPEFRARRMAQMSQYVVGEGDDAEARIRQIDELKYALRSVNMFAPWIRRIFIATDSTPPPWLAEHPKITIVRAEDHFSDRSALPTYNSHAVESQLHHIPGLSEHFLYSNDDMFFGRPLKASMFFSPGGVTRFIEAKTRIGLGANNPARSGFENAARVNRQLLFDRFGQVITRHLEHTAVPLRKSVLIEMEREFPEEFARTAASPFRSDTDISVTNSFYHYYALMTGRAVPQEKAKVLYVDTTSYAGLRLLPKLRKHRGYDFFCLNDGSFPEVPAAQRAERVVSFLERYFPIPAPWEKIAADVSRRDFAVPRTSAPSEGALEHHHHHH | not soluble |
| MSQFAVIIFGDQAKANEASRVLTELQADNSLVLFSQAVIAKDLAGTVSLMAPASGGAVGSAVSGLASRLIGVPVGGHGDLSDAGVLDSFCQEAADALKPGATAIVAEISEDRLGPLNTQMHALGGQVLRSCNSDSEGDEIAKQTARQIANIERLNAEYVRAPQDADKPGETPVDAVTLAPDERASNQSIVKANAEARSAKLSQACGLTKDALG | not soluble |
| SSNAKWDQWSSDWQTWNAKWDQWSNDWNAWRSDWQAWKDDWARWNQRWDNWAT | soluble |
